Measured values reported in patent publication US20190241648A1 (STATEN BIOTECHNOLOGY B V, published 2019).
Ends that are not written are not given here.

Assays:
Test in all cases: cyclic peptide substitution array
ApoC3 peptide P69C = molecular target: T1, ApoC3 peptide P69C (human, thioether (positions not given here); not fully specified (bridges); also: thioether from modified N-terminus to C-terminal Cys (Cys not in chain))
T1 peptide: DKFSEFWDLDCEV
Description: (§1) S62 and D68 of mature huApoC3 were also highly conserved; substitution of S62 by A or V, and substitution of D68 by E or P, caused decrease of spot intensities by ˜60% or higher. […] Amino acid F64 was completely variable.
(§2) Pre: staining of one of the ApoC3 peptide microarrays was done with the secondary antibody goat anti-human IgG (Fe) DyLight680 (1:5000) and control antibody mouse monoclonal anti-HA (12CA5) DyLight800 (1:2000) to investigate background interactions of the secondary antibody with the antigen-derived peptides that could interfere with the main assays. Subsequent incubation of other ApoC3 peptide microarrays with antibody samples was followed by staining with secondary and control antibodies as well as read-out at scanning intensities of 7/7 (red/green). The additional HA peptides framing the peptide arrays were stained as internal quality control to confirm the assay quality and the peptide microarray integrity.

ApoC3 peptide S62Q = molecular target: T2, ApoC3 peptide S62Q (human, thioether (positions not given here); also: cyclic (thioether), ring places not given here)
T2 peptide: DKFQEFWDLDPEV
Description: as §1, §2

[1] = molecular target: T3, wild-type ApoC3 peptide DKFSEFWDLDPEV (human, cyclic (thioether))
T3 construct: 13 aa cyclic constrained peptide
T3 peptide: DKFSEFWDLDPEV
Description: as §1, §2

ApoC3 peptide L67C = molecular target: T4, ApoC3 peptide L67C (human, cyclic (thioether))
T4 peptide: DKFSEFWDCDPEV
Description: as §1, §2

ApoC3 peptide P69V = molecular target: T5, ApoC3 peptide P69V (human, not fully specified; cyclic (thioether))
T5 peptide: DKFSEFWDLDVEV
Description: as §1, §2

ApoC3 peptide P69A = molecular target: T6, ApoC3 peptide P69A (human, thioether (positions not given here); not fully specified (bridges); also: thioether from modified N-terminus to C-terminal Cys (Cys not in chain))
T6 peptide: DKFSEFWDLDAEV
Description: as §1, §2

ApoC3 peptide V71F = molecular target: T7, ApoC3 peptide V71F (human, thioether (positions not given here); also: cyclic (thioether), ring places not given here)
T7 peptide: DKFSEFWDLDPEF
Description: as §1, §2

ApoC3 peptide F64M = molecular target: T8, ApoC3 peptide F64M (human, thioether (positions not given here); not fully specified (bridges); also: cyclic (thioether), positions not given here)
T8 peptide: DKFSEMWDLDPEV
Description: as §1, §2

ApoC3 peptide F64R = molecular target: T9, ApoC3 peptide F64R (human, thioether (positions not given here); not fully specified (bridges); also: cyclic (thioether), positions not given here)
T9 peptide: DKFSERWDLDPEV
Description: as §1, §2

ApoC3 peptide D59K = molecular target: T10, ApoC3 peptide D59K (human, thioether (positions not given here); not fully specified (C-terminus, bridges))
T10 peptide: KKFSEFWDLDPEV
Description: as §1, §2

ApoC3 peptide D66T = molecular target: T11, ApoC3 peptide D66T (human, not fully specified; cyclic (thioether))
T11 peptide: DKFSEFWTLDPEV
Description: as §1, §2

ApoC3 peptide P69S = molecular target: T12, ApoC3 peptide P69S (human, not fully specified; cyclic (thioether))
T12 peptide: DKFSEFWDLDSEV
Description: as §1, §2

ApoC3 peptide D66Y = molecular target: T13, ApoC3 peptide D66Y (human, cyclic (thioether))
T13 peptide: DKFSEFWYLDPEV
Description: as §1, §2

ApoC3 peptide D66W = molecular target: T14, ApoC3 peptide D66W (human, cyclic (thioether))
T14 peptide: DKFSEFWWLDPEV
Description: as §1, §2

ApoC3 peptide P69L = molecular target: T15, ApoC3 peptide P69L (human, not fully specified; cyclic (thioether))
T15 peptide: DKFSEFWDLDLEV
Description: as §1, §2

ApoC3 peptide P69Q = molecular target: T16, ApoC3 peptide P69Q (human, not fully specified; cyclic (thioether))
T16 peptide: DKFSEFWDLDQEV
Description: as §1, §2

ApoC3 peptide D59T = molecular target: T17, ApoC3 peptide D59T (human, thioether (positions not given here); not fully specified (C-terminus, bridges); also: cyclised via thioether between a C-terminal Cys and a modified N-terminus, the Cys and the N-terminal …)
T17 peptide: TKFSEFWDLDPEV
Description: as §1, §2

ApoC3 peptide D59N = molecular target: T18, ApoC3 peptide D59N (human, thioether (positions not given here); not fully specified (C-terminus, bridges); also: cyclised via thioether between a C-terminal Cys and a modified N-terminus, the Cys and the N-terminal …)
T18 peptide: NKFSEFWDLDPEV
Description: as §1, §2

ApoC3 peptide E70N = molecular target: T19, ApoC3 peptide E70N (human, cyclic (thioether))
T19 peptide: DKFSEFWDLDPNV
Description: as §1, §2

ApoC3 peptide L67P = molecular target: T20, ApoC3 peptide L67P (human, thioether (positions not given here); not fully specified (bridges); also: thioether between a C-terminal Cys side chain and a modified N-terminus, the Cys is not in the chain)
T20 peptide: DKFSEFWDPDPEV
Description: as §1, §2

ApoC3 peptide D68M = molecular target: T21, ApoC3 peptide D68M (human, cyclic (thioether))
T21 peptide: DKFSEFWDLMPEV
Description: as §1, §2

ApoC3 peptide D66K = molecular target: T22, ApoC3 peptide D66K (human, not fully specified; cyclic (thioether))
T22 peptide: DKFSEFWKLDPEV
Description: as §1, §2

ApoC3 peptide S62K = molecular target: T23, ApoC3 peptide S62K (human, thioether (positions not given here); also: cyclic (thioether), ring places not given here)
T23 peptide: DKFKEFWDLDPEV
Description: as §1, §2

ApoC3 peptide F61G = molecular target: T24, ApoC3 peptide F61G (human, cyclic (thioether))
T24 peptide: DKGSEFWDLDPEV
Description: as §1, §2

ApoC3 peptide E63P = molecular target: T25, ApoC3 peptide E63P (human, cyclic (thioether))
T25 peptide: DKFSPFWDLDPEV
Description: as §1, §2

ApoC3 peptide K60H = molecular target: T26, ApoC3 peptide K60H (human, cyclic (thioether))
T26 peptide: DHFSEFWDLDPEV
Description: as §1, §2

ApoC3 peptide F64V = molecular target: T27, ApoC3 peptide F64V (human, thioether (positions not given here); not fully specified (bridges); also: cyclic (thioether), positions not given here)
T27 peptide: DKFSEVWDLDPEV
Description: as §1, §2

ApoC3 peptide E70Y = molecular target: T28, ApoC3 peptide E70Y (human, cyclic (thioether))
T28 peptide: DKFSEFWDLDPYV
Description: as §1, §2

ApoC3 peptide D66S = molecular target: T29, ApoC3 peptide D66S (human, not fully specified; cyclic (thioether))
T29 peptide: DKFSEFWSLDPEV
Description: as §1, §2

% of binding to wild-type peptide (ApoC3 peptide P69C): 3.72% | % of binding to wild-type peptide (ApoC3 peptide S62Q): 1.13% | % of binding to wild-type peptide [1]: 100% | % of binding to wild-type peptide (ApoC3 peptide L67C): 0% | % of binding to wild-type peptide (ApoC3 peptide P69V): 55.2% | % of binding to wild-type peptide (ApoC3 peptide P69A): 25.7% | % of binding to wild-type peptide (ApoC3 peptide V71F): 81.4% | % of binding to wild-type peptide (ApoC3 peptide F64M): 132% | % of binding to wild-type peptide (ApoC3 peptide F64R): 73.7% | % of binding to wild-type peptide (ApoC3 peptide D59K): 30.6% | % of binding to wild-type peptide (ApoC3 peptide D66T): 0% | % of binding to wild-type peptide (ApoC3 peptide P69S): 86.9% | % of binding to wild-type peptide (ApoC3 peptide D66Y): 0% | % of binding to wild-type peptide (ApoC3 peptide D66W): 0% | % of binding to wild-type peptide (ApoC3 peptide P69L): 16.7% | % of binding to wild-type peptide (ApoC3 peptide P69Q): 24.3% | % of binding to wild-type peptide (ApoC3 peptide D59T): 94.9% | % of binding to wild-type peptide (ApoC3 peptide D59N): 52.5% | % of binding to wild-type peptide (ApoC3 peptide E70N): 49.6% | % of binding to wild-type peptide (ApoC3 peptide L67P): 25.5% | % of binding to wild-type peptide (ApoC3 peptide D68M): 2.82% | % of binding to wild-type peptide (ApoC3 peptide D66K): 0% | % of binding to wild-type peptide (ApoC3 peptide S62K): 4.05% | % of binding to wild-type peptide (ApoC3 peptide F61G): 0.74% | % of binding to wild-type peptide (ApoC3 peptide E63P): 81.2% | % of binding to wild-type peptide (ApoC3 peptide K60H): 116% | % of binding to wild-type peptide (ApoC3 peptide F64V): 117% | % of binding to wild-type peptide (ApoC3 peptide E70Y): 50.7% | % of binding to wild-type peptide (ApoC3 peptide D66S): 0%
B1: Llama antibody 5E5 (antibody, V domains shown)
VH: QLQLVESGGGLVQPGGSLRLSCAASGFTFGTYSMRWVRQVPRKALEWVSSISTDGGGTAYRDSVKGRFTISRDNAKNTLYLQMNNLKPEDTAIYYCVIAGYSDWGQGTQVTVSS
VL: ATMLTQSPGSLSVVPGESASISCKTSQGLVHSDGKTYFYWFLQKPGQSPQQLIYQVSNRASGVPDRFTGSGSGTDFTLKISGVKAEDAGVYYCAQGTYYPHTFGSGTRLEIK
notes: detected with goat anti-human IgG (Fc); also called mAb 5E5
